Paper doi:10.1101/2021.07.28.453719

Columns and labels:
Assay in all cases: ITC
[1] = target: second bromodomain (BD2) of BRD4 (human)
[2] = target: first bromodomain (BD1) of BRDT, wild type (human)
[3] = target: BRDT-L61AzF mutant (photo-responsive bromodomain analogue) (human)
[4] = target: BRD2-L108AzF mutant (photo-responsive bromodomain analogue) (human)
[5] = target: first bromodomain (BD1) of BRD2, wild type (human)
[6] = target: BRD3-L68AzF mutant (photo-responsive bromodomain analogue) (human) (UniProt Q15059)

Kd [1] [µM] | Kd [2] [µM] | Kd [3] [µM] | Kd [4] [µM] | Kd [5] [µM] | Kd [6] [µM] | Substance
57 | – | – | – | – | – | ILF3 variant peptide AKacGALLKacG (aa 99-106) 15 carrying L102A
33 | – | – | – | – | – | diacetylated ILF3 peptide 10 (AKacGLLLKacG)
– | 13.7 | 13.5 | 93.5 | 27.8 | 14.2 | tetra-acetylated histone H4 peptide (H4Kac4) 2 (from UniProt P62805 2-22)
